The target of series [1] is T1, BmLARK (Bombyx mori, UniProt Q5I7M6 1-343). The series is described as follows: EMSA; 50 mM K+; 10 mM Tris pH 7.5, 50 mM KCl, 1 mM DTT, room temperature, 20 min; 2 uM probe, 2 ug BmLARK or 1 ug BG4 in 20 ul; 4% PAGE on ice. The note with it: protein: recombinant; tags: GST (pGEX-6P-1); label: 5' 6-FAM.
In series [2] the target is T1, BmLARK. The series is described as follows: EMSA; 50 mM K+; reduced by unlabelled same-sequence competitor; 10 mM Tris pH 7.5, 50 mM KCl, 1 mM DTT, room temperature, 20 min; 2 uM probe, 2 ug BmLARK or 1 ug BG4 in 20 ul; 4% PAGE on ice. The note with it: protein: recombinant; tags: GST (pGEX-6P-1); label: 5' 6-FAM; G-quadruplex. For orientation: A gel shift assay detects complexes by their altered migration in electrophoresis.

T1 sequence (Q5I7M6 entry or part of it): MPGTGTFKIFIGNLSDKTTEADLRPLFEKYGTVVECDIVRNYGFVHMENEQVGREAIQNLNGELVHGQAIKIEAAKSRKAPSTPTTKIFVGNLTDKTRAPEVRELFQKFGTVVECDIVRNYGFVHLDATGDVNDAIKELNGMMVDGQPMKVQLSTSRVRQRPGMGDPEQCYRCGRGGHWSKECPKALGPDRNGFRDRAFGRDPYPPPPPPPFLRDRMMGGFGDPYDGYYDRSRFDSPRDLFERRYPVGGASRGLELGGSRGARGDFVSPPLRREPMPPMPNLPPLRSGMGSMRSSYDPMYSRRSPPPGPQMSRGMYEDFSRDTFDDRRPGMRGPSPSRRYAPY

On to GTCGTGAAGGTGTTGATGGAGTGTAGGTT (ssDNA) [FAM-Mut BmACBP G4], for which the binding result with BmLARK [1] is “no binding”. For GTCGGGAAGGGGTTGGGGGGGGGTAGGTT (structured_DNA) [FAM-BmACBP G4 (folded with K+)], in the series with BmLARK [2], the binding result was “binds”.

The record behind these values is PMC9262599, “DNA G-quadruplex structure participates in regulation of lipid metabolism through acyl-CoA binding protein”.
